First the molecules themselves.
B1: glmS ribozyme (parent)
chain: AUAAAAGCGCCAGAACUACAGAAAUGUAGUUGACGAGGAGGAGGUUUAUCGAAUUUUCGGCGGAUGCCUCCAAA

Common to all, as to conditions: with glucosamine-6-phosphate
Variants of B1 are the subject of data set [1]. The data set can be described thus: kcat; higher = faster cleavage; RNA array. The gist of the method:
(§1)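 Barcoded ribozyme variants were transcribed in situ on sequenced MiSeq chips by E. coli RNA polymerase. At 37 °C, a hybridised Cy3 probe tracked them while glucosamine-6-phosphate (40 μM to 10 mM) in HEPES/KCl/Mg(OAc)2 buffer flowed in and tiles were imaged over ~14 h. Per-tile medians of signals normalised to baseline and to non-cleaving reference variants were fit to one- or two-exponential decays, giving kobs. kcat and KM came from weighted Michaelis–Menten fits across concentrations.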

In data set [2] the parent is B1. The data set can be described thus: KM; higher = weaker cofactor use; RNA array. Summed up:
as §1

Variants of B1 are the subject of data set [3]. Kind of data set: self-cleavage kobs at 40 uM GlcN6P; higher = faster cleavage; RNA array. The gist of the method:
as §1

Variants of B1 are the subject of data set [4]. Kind of data set: self-cleavage kobs at 640 uM GlcN6P; higher = faster cleavage; RNA array. Summed up: as §1
Variants of B1 are the subject of data set [5]. Kind of data set: self-cleavage kobs at 2500 uM GlcN6P; higher = faster cleavage; RNA array. The gist of the method:
as §1

Data set [6] covers variants of B1. The data set can be described thus: self-cleavage kobs at 10000 uM GlcN6P; higher = faster cleavage; RNA array. Summed up: as §1
In data set [7] the parent is B1. Kind of data set: self-cleavage kobs at 160 uM GlcN6P; higher = faster cleavage; RNA array. The gist of the method:
as §1

± gives the standard error. For some of these results: This sample holds only a part of the variants without activity. Where only a bound is given, the exact number is not on record here.

For AUAAAAGCGCCAGAACUACAGAAAUGUAGUUGACGAGGAGGAGGUUUAUCGAAUUUUUGGCGGAUGCCUCCAAA [C58U], the kcat (usually the number of substrate molecules converted per active site and unit of time at saturation) in data set [1] worked out at 0.00011 ± 3.8e-06 s⁻¹. In addition, the KM (commonly the substrate concentration at which the rate is half of its maximum) in data set [2] was 4350 ± 360 µM. Further, the “self-cleavage kobs at 40 uM GlcN6P” value in data set [3] is under 1e-05 s⁻¹. Moreover, in data set [4], the “self-cleavage kobs at 640 uM GlcN6P” value is 1.66e-05 ± 1.8e-06 s⁻¹. In addition, the “self-cleavage kobs at 2500 uM GlcN6P” value in data set [5] came to 3.96e-05 ± 1.2e-06 s⁻¹. Further, the “self-cleavage kobs at 10000 uM GlcN6P” value in data set [6] came to 7.7e-05 ± 1.3e-06 s⁻¹.

For AUAAAAGCGCCAGAACUACAGAAAUGUACUUGACGAGGAGGAGGUUUAUCGACUUUUCGGCGGAUGCCUCCAAA [G29C A53C], the kcat in data set [1] is 0.000417 ± 2.8e-05 s⁻¹. The KM in data set [2] was determined as 1380 ± 180 µM. In data set [7], the “self-cleavage kobs at 160 uM GlcN6P” value amounted to 4.1e-05 ± 1.7e-05 s⁻¹. In data set [4], the “self-cleavage kobs at 640 uM GlcN6P” value was found to be 0.00013 ± 1.7e-05 s⁻¹. The “self-cleavage kobs at 2500 uM GlcN6P” value in data set [5] turned out to be 0.00029 ± 4.5e-05 s⁻¹. In data set [6], the “self-cleavage kobs at 10000 uM GlcN6P” value was determined as 0.000356 ± 5.1e-05 s⁻¹.

Take AUAAAAGCGCCAGAACUACAGAAAUGUAGUUGACGAGGAGGAGGUUUAUCGAAUUUUCGGCUGAUGCAUCCAAA [G62U C68A]: in data set [1], the kcat came to 1.34e-05 ± 8.7e-07 s⁻¹. In addition, in data set [2], the KM worked out at 129 ± 56 µM.

For AUAAAAGCGCCAGAACUACAGAAAUGUAGUCGACGAGGAGGAGGUUUAUCGAAUUUUCGGCGGAUGCCUGCAAA [U31C C70G], the kcat in data set [1] worked out at 5.96e-05 ± 8.1e-06 s⁻¹. Besides, the “self-cleavage kobs at 640 uM GlcN6P” value in data set [4] amounted to 3.34e-05 ± 7.2e-06 s⁻¹. In addition, the “self-cleavage kobs at 2500 uM GlcN6P” value in data set [5] came out at 6.15e-05 ± 7.8e-06 s⁻¹. The “self-cleavage kobs at 10000 uM GlcN6P” value in data set [6] stood at 4.89e-05 ± 8.3e-06 s⁻¹.

Regarding AUAAAAGCGCCAGAACUACAGAAAUGUAGUGGACGAGGAGGAGGUUUAUCGAAUUUUCGGCGGAGGCCUCCAAA [U31G U65G], the kcat in data set [1] stood at 0.00259 ± 0.00018 s⁻¹. Also, the Michaelis-Menten constant (KM) in data set [2] amounted to 4140 ± 440 µM. In addition, the “self-cleavage kobs at 160 uM GlcN6P” value in data set [7] turned out to be 9.35e-05 ± 1.7e-05 s⁻¹. Also, the “self-cleavage kobs at 640 uM GlcN6P” value in data set [4] came to 0.000375 ± 5.5e-05 s⁻¹. Moreover, the “self-cleavage kobs at 2500 uM GlcN6P” value in data set [5] turned out to be 0.000924 ± 0.00017 s⁻¹. Further, the “self-cleavage kobs at 10000 uM GlcN6P” value in data set [6] is 0.00184 ± 0.00019 s⁻¹.

In the case of AUAAAAGCGCCGGAACUACAGAAAUGUAGUUGACGAGGAGGAGGUUUAUCGAAUUUUCGGCGGAUGGCUCCAAA [A12G C67G], the catalytic constant (kcat) in data set [1] worked out at 0.000322 ± 4.9e-06 s⁻¹. In data set [2], the KM was 1850 ± 62 µM. For the same variant, the “self-cleavage kobs at 160 uM GlcN6P” value in data set [7] came out at 2.45e-05 ± 1.1e-05 s⁻¹. The “self-cleavage kobs at 640 uM GlcN6P” value in data set [4] worked out at 8.36e-05 ± 8.2e-06 s⁻¹. Moreover, the “self-cleavage kobs at 2500 uM GlcN6P” value in data set [5] came out at 0.000182 ± 1.7e-05 s⁻¹. Also, the “self-cleavage kobs at 10000 uM GlcN6P” value in data set [6] was 0.000273 ± 1.9e-05 s⁻¹.

In the case of AUAAAAGCGCCAGAACUACAUAAAUGUAGUUGACGAGGAGGAGGUUUAUCGAAUUUUCGGCGGAUGCCUCCAAA [G21U], the kcat in data set [1] stood at 0.0659 ± 0.016 s⁻¹. In data set [2], the KM was 2090 ± 600 µM. Moreover, in data set [3], the “self-cleavage kobs at 40 uM GlcN6P” value was determined as 0.00136 ± 8.6e-05 s⁻¹. Also, the “self-cleavage kobs at 160 uM GlcN6P” value in data set [7] is 0.00351 ± 0.00055 s⁻¹. In addition, in data set [4], the “self-cleavage kobs at 640 uM GlcN6P” value amounted to 0.0147 ± 0.0015 s⁻¹. The “self-cleavage kobs at 2500 uM GlcN6P” value in data set [5] was found to be 0.0337 ± 0.0063 s⁻¹. Also, the “self-cleavage kobs at 10000 uM GlcN6P” value in data set [6] is 0.059 ± 0.0083 s⁻¹.

As for AUAAAAGCGCCAGAACUACAGAAAUGUAGUUGACGAGGAGGAGGUUUAUCGAACUUUGGGCGGAUGCCUCCAAA [U54C C58G], in data set [1], the turnover number (kcat) worked out at 5.26e-05 ± 4.8e-06 s⁻¹. Besides, the KM in data set [2] is 7250 ± 1300 µM. Further, the “self-cleavage kobs at 10000 uM GlcN6P” value in data set [6] came out at 3.05e-05 ± 1.2e-05 s⁻¹.
